Consider 16 sequences from a protein production outcome set (Wang et al. 2014).

The data set is described as follows: label from the status in PepcDB records.
For “MNMDPLIYVAALLFTGLLAGLATGLLGVGGGFIIAPVLFFLMEAGGTPPDIAIRTAFGTSLAIILPTALSGAHSHYRRKCVDSRIGITMGVLGACGSVAGVFTASASPAYVLRAFFGVLLILVSAQLLLSSRISPSGFGRNAAFPLGFLAGFLSGLLGIGGGVVLVPLLVMVAGFDVLEAVGTSSLVIAFTAASGTISYIFTGPGGPFTVGYVNLLQFLLVIVMSVPSSRLGALIAHRVDVRYIRYIFIILLLFTGLKMLL”, the protein production entry is given as “failed”.
As for “MRLLIAGRLFFGLGLALWALGAGPSPARAAGMSLIRDAEIENTIAMIATPLLRAASIGDRAITFRLINDDTINAFATTEMRVFVYTGLFLKTEGPDELKGVIAHEMGHLAGGHLLRMKDEMANASMTALVGMLAGAAAGIASGRGDVGSAVMMGTNQAAMRGFLTFSRTQESSADSFAMRMLDATGQSAAGMLKFFRKLGDQEALITASQDPYVRTHPLTRDRITAVADHVAHSRFSDVPPSPAEVLAYQRAKAKLMAFLKSTGATLAAYPATDRSVAARYARAIAYYRAGDLGRALPLIDGLIAEDPNDPYFEELRGQMLFENQRLREALGSYTKAARLAPTEPLILVSLAHVQVELGDRPLLENALTNLNAALGLDPTNSFAWRQMANASGKLGDEAMAAYYLAEMALSQGDPREALAHAKRAEGRIPKGSPQGLRLQDLIAEAERQKKRQEDRD”, the protein production result is recorded as “failed”.
In the case of “MIGEQPGDIFRRGEILNHTYEIEGVLGRGGTGEIYRARNLISGRIVAVKALNRRFSGNDDYIGLMRREEQLRDVIDDAVVRYTECSRSDGGHVFLVMDHIEGPSLAQAMEAGRIEARDLLIVAHRVAEGLRAAHRHGIVHRDLSPDNIILRGGAPERATIIDFGIAKDLSAGAQTIVGNDFAGKYEYAAPEQIDGRAEPRSDLYALGATLLAAFRGEAPFAGATPGEIVRRKGRPLDTEGVPEPLRGLIDRLAAPEAERRPASAAAVVEELDRLLRPQAEPDRRRRVWPALAALLLLAVLAVGGWIALRPPLAEPYRLTASAADLAGEAPDRAAAARIAAAYARAAGHESHGLRIARGAPEGWADAAAEVLALAATLDDWRLALNGAEAALSGRAPDARSAAMVETRFRDWASRRGFEPRLQIEVVPPPLDPQAVSALLQRHADCGPLSEGGTEGVITGAVATAETAAALERALADLRGDRPLHLAITVLNPAICAVRQALPDRPAQGLSIWLGEAATGAPNLAGIYGPGDYPLVEIRLPAGMSGLALWVGLVDVTGSVLNLLPNVYSDESRIDRLGTVANGVRTIRVMPLEFQVAGGTQLFALQVEARDFGRSELVAVVSRGDLFALRRPKDESVASFTEALSALRRDDPDRLVAVTRRLLESRPSR”, the protein production result is given as “failed”.
Then “EVVVTALGIKREKKMLGYAVQELKSDELNKTGDPSVTSALQGKVAGLQMNTSATGLGGSTKITIRGNSSLTDNNQPLWIVDGVPFSDTSTSSASRYDGVDRGSASMDINPDDIESISVLKGPNAAALYGSRAGNGVILITTKKGSK”, with “failed”.
As to “MKLMDVHVLFSGGKDSSLSAVILKKLGYNPHLITINFGVIPSYKLAEETAKILGFKHKVITLDRKIVEKAADMIIEHKYPGPAIQYVHKTVLEILADEYSILADGTRRDDRVPKLSYSEIQSLEMRKNIQYITPLMGFGYKTLRHLASEFFILEEIKSGTKLSSDYEAEIRHILKERGESPEKYFPEHKQTRVVGLKKEI”, the protein production entry is given as “not failed”.
In the case of “MSKTVVLPQSDSPSVVASVSFWQAFRFWLKLGFISFGGPAGQIAMMHQELVDNRRWISEGRFLHALNFCMVLPGPEAQQLATYIGWLMHKTWGGVIAGVLFILPSLVLLIALAWIYLVWGDVAVVAGIFYGIKPAVAAIVLQAAHRIGSRALKNGAYWAIAAAAFVAIFALNVPFPLIVLAAALVGFIGGRLAPTIFGRADAHHAQSHPGGAAIIDDTTPIPAHAIFSWRRTSQVLIAGMLLWLVPMAALTLMLGWAHPLTQMSWFFTKAALMTFGGAYAVLPYVYQGAVTHYGWLTAGQMMDGLALGESTPGPLIMVVTFVGFVGGYTKAVLGVDDVLLGGIAAACLVTWFTFLPSFIFILAGGPFIETTHNKVGFTAPLTAITAAVVGVILNLALFFIWHSVWGPSGFDPWSAAIALGAAGLLFRYKWKLTWVLATAAAVGLIVHMAGLSGAG”, the protein production result is “failed”.
Then “MIEKILLAVSGLGHAEEMLKTLKEVPSIQSAKVTVLHVVPSQATSSAMTDKWEEGGKILANAIQALNLDPSQVSSILRQGDPKDVVCQVADEIDADLIIMGSRGLKRLQSILSNSVSQYVFQLSSRPMLLVKDDIYVKRIKRVMVAMDNSDAAKHCLNLALFLLRGIVGSQLILANVTTDLRGKTSEVSEISPDKNPVLASAVAEAQRYGIQTRCFTSSGKPGEEICRLADELNVDLLLLGSPDRRPSVAKNFVDIDRLIGASLSDYVRVNASCPVLLARTTG”, with “failed”.
As for “MSSERDLVNFLGDFSMDVAKAVIAGGVATAIGSLASFACVSFGFPVILVGGAILLTGIVCTVVLNEIDAQCHLSEKLKYAIRDGLKRQQELDKWKRENMTPFMYVLNTPPVI”, the protein production result is recorded as “failed”.
“MGSCCSCLNRDSVPDNHPTKFKVTNVDDEGVELGSGVMELTQSELVLHLHRREAVRWPYLCLRRYGYDSNLFSFESGRRCQTGQGIFAFKCSRAEEIFNLLQDLMQCNSINVMEEPVIITRNSHPAELDLPRAPQPPNALGYTVSSFSNGCPGEGPRFSAPRRLSTSSLRHPSLGEESTHALIAPDEQSHTYVNTPASEDDHRRGRHCLQPLPEGQAPFLPQARGPDQRDPQVFLQPGQVKFVLGPTPARRHMVKCQGLCPSLHDPPHHNNNNEAPSECPAQPKCTYENVTGGLWRGAGWRLSPEEPGWNGLAHRRAALLHYENLPPLPPVWESQAQQLGGEAGDDGDSRDGLTPSSNGFPDGEEDETPLQKPTSTRAAIRSHGSFPVPLTRRRGSPRVFNFDFRRPGPEPPRQLNYIQVELKGWGGDRPKGPQNPSSPQAPMPTTHPARSSDSYAVIDLKKTVAMSNLQRALPRDDGTARKTRHNSTDLPL”: the protein production result is given as “not failed”.
In the case of “MTVEEAIALVEQLLSGTRLTKVQEIVFRQCWAGQTYSDIALESDYDLGYIKDVGSELWRSLSQALGEKVTKKNLYTVLKRAAKQNSINPSSSLQLPSLANYTDWGEAIDVSQFYGRTHDLATLSRWVLQDNCRVVSLLGMGGIGKTALSVKLAQQLQGQFEYVIWRSLRHAPSFSDKLTECIKILSNQQVTTLPASSHEQITYLIEYLRKSRCLLILDNFDTLLQDGKRAGSYRQGYEPYGELLWRLGETQHQSCVLITSREKPAQIAALEGDGLPVRTLALSGLEVAAGQTILTLKGLSGSEDQTRQLVECYGGNPLALKIAATSIRDLHEGSIANFLSEGTTVFQGIGHLLEDQFQRLSTLEQQLMYWLAINREKVSSTKLQTAFTSPLSKPKLIETLESLRWRSLIESNTGQFTQQPVVMEYVTDSLVEQVCQEIITESPQYLLTHALMQVQAKDYIRDSQINLIVCPILKQLQITLGSVHQLDLKLGRLIRKLQSKVIETVGYGGGNLLNLLAQLDTDLTGYDFSGLDMRECDLRTVNLHAVNFTQTTFRDCVFAATFGGITSVAFSRDGCQLATSDTSGVINIWDVNNGKQLFNCQEHNSWIWDVAFSSVAPVLASCGQDHTIKLWNTTTGECFNTLHGHTSIVTSVAFSPEGKLLASSSYDHSVKVWDLDTGECLQTFLGHDACVWSVVFHPVGQILATAGEDNTIKLWELQSGCCLKTLQGHQHWVKTIAFNSGGRILASGSFDQNVKLWDIHTGKCVMTLQGHTGVVTSVAFNPKDNLLLSGSYDQSVKVWDRKTGRCLDTLKKHTNRIWSVAFHPQGHLFVSGGDDHAAKIWELGTGQCIKTFQGHSNATYTIAHNWEHSLLASGHEDQTIKLWDLNLHSPHKSNVNTHPFRILQGHSNRVFSVVFSSTGQLLASGSADRTIKLWSPHTGQCLHTLHGHGSWVWAIAFSLDDKLLASGSYDHTVKIWDVSSGQCLQTLQGHPGSVLAVAFSCDGKTLFSSGYEKLVKQWDVETGYCLQTWEADSNRVWAVAVSRDNQYLATGGDDSVVRLWDIGKGVCVRTFSGHTSQVICILFTKDGRRMISSSSDRTIKIWNVSTGECLATLQAHDHWVWSLYLTPDEKTLLSSSWDETIKCWNISTGECWQTLRPARPYEGMIINEVVGLSQAQIATLKALGALEVN”, the protein production entry is reported as “failed”.
On to “MKYAIREYKGKNVDLSKLSSIIENYFREENFVTQSSQHPRGYVIQAKKGGIFRTILGMDRAFTIVLVGDSSDFKVQIGVGKWLQDLGVAAIEAFLITPVVAFVEVPESLWSFELEHEFWQFLENQINLGIQ”, for which the protein production entry is recorded as “failed”.
With “MNLNEYKLLTFFNMKYKRKSKEEFLIKYQHDNTFRIMSLCLIILFLGVMSASVAHAESYKFVTKWGSYGNGAGQFHYPRAIVATSSGYIYVADSGNNRVQEFNSNGKFINQWSSTNDVSLGSVNGVAIDSSGDVYVADTNNRIVKFDKNGNFITKFGSYGSGNVQFKNARDICLDSSGNIYVADTGNNRIQKLDNNGNYLVQWGSYGSSNGQFKNPIDVALDSLDNVYVADKDNHCIKKFDSNGNYLMQFGNSGNGDGQFNNIISVFVDSSGNIYVSDRGNTRIQKFDSDGNYLTHWGSYGTNDGQFKNPEDIGVDSSGNVYVADADNNRIQKFAPVYPPVTNFVSNVTTGYAPLAVKFTDTSTGTPFSWTWNFGDGTFSTVKNPTHTYSKAGKYTVKLTATNEGGNSTAAKTNYITVKTTTVKPVAIFSASPTSGKAPLKVTFTDKSTGSPTKWKWNFGDGSKSFLQNPSHKYSKAGKYTVSLTVKNDKGSNTVTKTNYLTVVAKPVAAFSASPTSGKAPLKVTFTDKSTGSPTKWKWNFGDGTTSAKQNPIHKYSKAGKYKVTLTVANAAGINTVTKTNYITVIAKPAAAFSASPTSGKAPLKVTFSDKSTGTPTKWKWTFGDGSKSFLQNPTHKYSKAGKYKVILTVTNTAGSNTVTKTNYITVVAKPVAAFSASPTSGKAPLKVTFSDKSTGTPTKWKWNFGDGATSIKQNPVHKYSNVGSYTVKLTVTNAAGSNTKTISNYIILKSK”, the protein production result was “failed”.
In the case of “MGHHHHHHSHMNSDSECPLSHDGYCLHDGVCMYIEALDKYACNCVVGYIGERCQYRDLKWWELR”, the protein production entry was “failed”.
Then “MGEKPWQPLLQSFEKLSNCVQTHLSNFIGIKNTPPSSQSTIQNPIISLDSSPPIATNSSSLQKLPLKDKSTGPVTKEDLGRATWTFLHTLAAQMTILSRMYPCRECADHFKEILRSNPAQAGSQEEFSQWLCHVHNTVNRSLGKLVFPCERVDARWGKLECEQKSCDLHGTSMDF”, with “failed”; and “MIALLPAYLLWVVLSLLEYNRQAREQIQDDIFREREYASVALRGISDAVVSIDTEQVIQYLNPAAEALLGLPAAQLLQRRLKQVAPLHYEFSRQPVQDPIEQAIATQQVVHLAQNCYLKRHNGEKLLVEGAVAPLLGRNGQLIGSVLTFRDTAPIRRRMLAALEASESRLRQHELELARVTRINTMGEMASGIAHEINQPLSAIMSYCQAGLSLLEDDELDMAMLRRALTSSVSQADRAGRIIHRLREFVTQKNQQLAPVQLNQAVHNALSLLDYELHDHDIHIEQNFAPELPLVYADTIQLEQVVLNLARNAVEAMEPTRPWGRLSITTRRQGERVQLIISDNGCGIPPDKLDRIFDPFFSTKPNGMGLGLAICQTAVEAFGGKLIAGNKPGSGAEFIIDLPCAPRDMAVPSGVEA”, with “failed”.
Take “MPHDDHEHHHAADSAGAQGRLVWALILTGGFVVFEALAGWKANSLALLTDAVHNLSDVLALGLSWYAMRLTAQPAHAAKTFGYHRAGILAALANSAGLVGVALYILYDAYVRLLSPAPVQADILIGVGGAALLVNAFTAWLVHHGSHDDLNMRSAFLHLLGDVVSTLGAIAAGVAIRYTGLYWLDPAVSVLIALLILWNAKGLMAEVMDILLESTPRDVDMGSMVRDMMQVEGVHGVHHLHVWSISRQLRMLSAHIVTDDIRLSEGEGLQKRVTRLLAQRYGIAHTTLQLESESCQPDSLYCDISRPNHRYHGE”: the protein production entry is given as “failed”.
